# Patent US20260070994A1 (PASSION TECHNOLOGY ZHUHAI PARTNERSHIP LIMITED PARTNERSHIP, published 2026)
# Where two headings read alike, the source gives them in different places.
# T1: CD25 on the CHO-CD25-overexpressing cell line (human, UniProt P01589 22-272)
# T1 chain: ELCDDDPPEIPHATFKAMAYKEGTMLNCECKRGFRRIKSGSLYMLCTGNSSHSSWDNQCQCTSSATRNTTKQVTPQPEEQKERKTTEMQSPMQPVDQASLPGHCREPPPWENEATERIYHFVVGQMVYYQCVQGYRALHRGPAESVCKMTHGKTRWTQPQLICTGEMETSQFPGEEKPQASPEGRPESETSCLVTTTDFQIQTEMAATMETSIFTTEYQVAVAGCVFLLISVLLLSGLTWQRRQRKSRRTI
# T2: CD25-His recombinant protein (human, UniProt P01589 22-240)
# T2 chain: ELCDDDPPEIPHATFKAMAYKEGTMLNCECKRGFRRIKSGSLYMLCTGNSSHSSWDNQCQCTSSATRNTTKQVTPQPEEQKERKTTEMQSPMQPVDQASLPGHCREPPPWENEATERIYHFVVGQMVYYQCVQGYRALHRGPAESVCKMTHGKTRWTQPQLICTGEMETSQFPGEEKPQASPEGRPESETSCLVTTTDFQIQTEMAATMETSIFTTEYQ
# T3: CD25 on the CHO-CD25-overexpressing cell line (human, UniProt P01589 22-272)
# T3 sequence (looked up): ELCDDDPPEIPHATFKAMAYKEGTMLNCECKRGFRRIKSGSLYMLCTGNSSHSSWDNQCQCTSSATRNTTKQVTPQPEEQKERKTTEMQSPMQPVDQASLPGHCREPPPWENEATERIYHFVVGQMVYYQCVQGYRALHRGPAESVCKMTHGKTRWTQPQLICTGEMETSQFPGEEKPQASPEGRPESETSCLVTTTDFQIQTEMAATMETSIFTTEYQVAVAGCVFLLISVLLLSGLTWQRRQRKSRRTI
# T4: CD25-His recombinant protein (human, UniProt P01589 22-240, limits assumed)
# T4 construct: Recombinant antigen made by the applicant; also called CD25-His antigen; CD25 antigen; not shown: His tag
# T4 sequence (looked up): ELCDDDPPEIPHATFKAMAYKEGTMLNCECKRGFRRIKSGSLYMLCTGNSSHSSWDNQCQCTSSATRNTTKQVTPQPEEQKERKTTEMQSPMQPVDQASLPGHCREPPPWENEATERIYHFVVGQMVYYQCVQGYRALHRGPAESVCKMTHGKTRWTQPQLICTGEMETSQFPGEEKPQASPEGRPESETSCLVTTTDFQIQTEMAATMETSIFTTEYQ
# Legend:
# [1] = target: T1, CD25 on the CHO-CD25-overexpressing …; assay: FACS
# [2] = target: T2, CD25-His recombinant protein; assay: ELISA
# [3] = target: T2, CD25-His recombinant protein; assay: BLI
# [4] = target: T3, CD25 on the CHO-CD25-overexpressing …; assay: cell-based or functional assay
# [5] = target: T1, CD25 on the CHO-CD25-overexpressing …; assay: FACS
# [6] = target: T4, CD25-His recombinant protein; assay: ELISA on human CD25 antigen, antibody 0.016 µg/ml
# [7] = target: T4, CD25-His recombinant protein; assay: ELISA on human CD25 antigen, antibody 10 µg/ml
# [8] = target: T4, CD25-His recombinant protein; assay: ELISA on CD25 antigen, transfection supernatant 5 µL
# Description: The CD25-His protein was coated on a 96-well microplate. After the candidate antibodies were transiently transfected into 293F cells for 48 hours, the supernatant was collected and ELISA detection was performed.
Binder,EC50 [1] [mg/L],EC50 [2] [mg/L],other results
D01 (VHH) VHH: QVQLVESGGGLAQPGGSLRLSCAASGFTFSNFAVSWARQVAGEGFEWVSGVYSDGDTYYADSVKDRFIISRDNAKNTLYLQMNSLKPEDTALYYCGAARGRLCSSIMTCDYWGQGTQVTVSS,1.27,0.0261,
A07-HM5 (VHH) VHH: EVQLVESGGGLVQPGGSLRLSCAVSGFTLDYYAIGWFRQAPGKGLEGVSCISGSDGRTAYADSVKGRFTISKDNAKNTVYLQMNSLRAEDTAVYYCAADPGYYCAGEVRYAGSLYDYWGQGTLVTVSS,,,Kd [3]: 9.62 nM; ADCC EC50 [4]: 0.0074 mg/L; EC50 [5]: 0.632 mg/L
A07-HM6 (VHH) VHH: EVQLLESGGGLVQPGGSLRLSCAVSGFTLDYYAIGWFRQAPGKGLEGVSCISGSDGRTAYGDSVKGRFTISKDNAKNTVYLQMNSLRAEDTAVYYCAADPGYYCAGEVRYAGSLYDYWGQGTLVTVSS,,,Kd [3]: 14.6 nM; ADCC EC50 [4]: 0.0047 mg/L; EC50 [5]: 0.772 mg/L
D04 (VHH) VHH: QVQLVESGGGLVQPGGSLRLSCAASGFTFSSSAVSWARLTPGKRLEWVSAIASDGSTYYADSMQGRFTISRDNAKNTVYLQMNSLKPEDTAVYYCAIPRDGLVPVFGIDYWGQGTQVTVSS,,0.0281,
B04 (VHH) VHH: QVQLVESGGGLVQPGGSLRLSCATSGFTLDYYAIGWFRQAPGKEREGVSCISSSDGTTAYADSVKGRFTISTDNARNTVYLQMNSLKPEDTAVYYCAADLGYYCADNVRYAGSLYDYWGQGTQVTVSS,7.02,0.164,
A05 (VHH) VHH: QVQLVESGGGLAQPGGSLRLSCAASGFTFSIYAMSWARQAPGKGLEWVSGIYSDSSYTYYADSVKGRFTISRDNAKNTLYLQMNSLKPEDTALYYCLKARGSGSYYPFDDYRGQGTQVTVSS,1.59,0.0177,
"B10 (VHH, Tested as transfection supernatant) VHH: EVQLVESGGGLVQPGGSLRLSCAVFGVTLDSYAIGWFRQAPGKEREGVSCISTSDGRTWETDAVLGRFTISRDNAKNTVYLQMNDLKPEDTAVYYCGADGRDWCSAHVYSRYEYDYSGQGTQVTVSS",,,ELISA OD [8]: 4.38

# Further lines, with some results ahead:
EC50 [1] [mg/L],EC50 [2] [mg/L],Binder,other results
1.14,0.00875,E08 (VHH) VHH: AVQLVESGGGLVQPGGSLRLSCAASGFTFSSYPMGWYRQAPGEECELVAGITSAGGSTNYADSVKGRFTISRDNAKNTVYLQMNSLKPEDTAVYYCNTDPRYYTDSRGPCSWGQGTQVTVSS,
2.8,0.0559,"clone A07 (VHH, Recombinant antibody from a eukaryotic expression vector (293F); also called A-A7; A-A07-VHH) VHH: EVQLVESGGGLAQPGGSLRLSCAVSGFTLDYYAIGWFRQAPGKEREGVSCISGSDGRTAYTDSVKGRFTISKDNAKNTVYLQMNSLKPEDTAVYYCAADPGYYCAGEVRYAGSLYDYWGQGTQVTVSS",ELISA OD [6]: 0.2; Kd [3]: 6.67 nM; ELISA OD [7]: 4.39; ADCC EC50 [4]: 0.0186 mg/L; EC50 [5]: 0.399 mg/L
1.88,0.0193,G10 (VHH) VHH: DVQLVESGGGLAQPGGSLRLSCAASGFTFSNYAMNWLRQAPGKGLEWVSGIYSDSSGTYYADSVKGRFTISRDNAKNTLYLQMNSLKPEDTALYYCAKASNSGSYYPWDDDWGQGTQVTVSA,
2.8,0.0128,A11 (VHH) VHH: DVQLVESGGGLVQPGGSLRLSCAASGFTFSSYAMSWYRQAPGKERELVAYITTSPGYTTYTDSVKGRFTISRDNAKNTVYLQMNSLKPDDTAVYYCNAWRGAPRGDYWGQGTQVTVSS,
